# From patent US20050222029A1 (MYRIAD GENETICS, published 2005)
# T1: Tumor Suppressor (TSG101) 231-391 (human, UniProt Q99816 231-390)
# T1 construct: bait (Gal4 DBD fusion)
# T1 sequence (looked up): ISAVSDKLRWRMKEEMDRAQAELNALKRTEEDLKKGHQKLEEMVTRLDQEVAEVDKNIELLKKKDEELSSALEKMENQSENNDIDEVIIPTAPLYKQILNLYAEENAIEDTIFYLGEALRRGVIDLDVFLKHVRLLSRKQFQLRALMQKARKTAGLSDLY
# T2: Tumor Suppressor (TSG101) 240-391 (human, UniProt Q99816 240-390)
# T2 construct: range 240-391; bait (Gal4 DBD fusion); also called TSG101 240-390
# T2 sequence (looked up): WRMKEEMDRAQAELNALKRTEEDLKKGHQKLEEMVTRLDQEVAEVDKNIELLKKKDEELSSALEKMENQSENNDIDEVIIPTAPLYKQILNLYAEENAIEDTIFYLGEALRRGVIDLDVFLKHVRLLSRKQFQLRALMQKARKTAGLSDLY
# T3: Tumor Suppressor (TSG101) 12-326 (human, UniProt Q99816 12-326)
# T3 construct: bait (Gal4 DBD fusion)
# T3 sequence (looked up): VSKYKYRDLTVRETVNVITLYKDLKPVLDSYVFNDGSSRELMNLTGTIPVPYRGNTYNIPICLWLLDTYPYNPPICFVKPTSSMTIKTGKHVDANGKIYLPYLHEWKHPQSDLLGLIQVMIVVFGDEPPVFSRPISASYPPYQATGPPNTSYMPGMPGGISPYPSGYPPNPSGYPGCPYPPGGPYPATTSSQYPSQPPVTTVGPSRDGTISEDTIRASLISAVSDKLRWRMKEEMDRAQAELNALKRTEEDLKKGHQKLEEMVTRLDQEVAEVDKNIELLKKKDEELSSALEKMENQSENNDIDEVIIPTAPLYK
# T4: Tumor Suppressor (TSG101) 140-270 (human, UniProt Q99816 140-270)
# T4 construct: range 140-270; bait (Gal4 DBD fusion)
# T4 sequence (looked up): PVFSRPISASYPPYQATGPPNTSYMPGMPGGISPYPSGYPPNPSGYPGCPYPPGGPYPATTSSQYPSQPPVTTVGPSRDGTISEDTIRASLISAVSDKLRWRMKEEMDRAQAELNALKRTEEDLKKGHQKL
# T5: Tumor Suppressor (TSG101) 50-391 (human, UniProt Q99816 50-390)
# T5 construct: range 50-391; bait (Gal4 DBD fusion)
# T5 sequence (looked up): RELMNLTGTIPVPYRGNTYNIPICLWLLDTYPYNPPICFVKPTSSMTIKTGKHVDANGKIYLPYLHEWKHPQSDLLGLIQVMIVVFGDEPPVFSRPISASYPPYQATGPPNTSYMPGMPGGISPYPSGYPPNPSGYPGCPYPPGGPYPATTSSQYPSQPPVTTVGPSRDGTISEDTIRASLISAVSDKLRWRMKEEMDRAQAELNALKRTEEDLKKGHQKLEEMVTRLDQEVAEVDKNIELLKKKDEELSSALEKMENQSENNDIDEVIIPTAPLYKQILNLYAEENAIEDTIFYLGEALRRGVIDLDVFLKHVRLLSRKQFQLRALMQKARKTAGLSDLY
# B1: Golgi autoantigen (Golgin-84) 198-501 (other, human, UniProt Q8TBA6 198-501, looked up)
# chain: SKENVSSNAACPDHTPTPNDDGKSHELSNLRLENQLLRNEVQSLNQEMASLLQRSKETQEELNKARARVEKWNADHSKSDRMTRGLRAQVDDLTEAVAAKDSQLAVLKVRLQEADQLLSTRTEALEALQSEKSRIMQDQSEGNSLQNQALQTFQERLHEADATLKREQESYKQMQSEFAARLNKVEMERQNLAEAITLAERKYSDEKKRVDELQQQVKLYKLNLESSKQELIDYKQKATRILQSKEKLINSLKEGSGFEGLDSSTASSMELEELRHEKEMQREEIQKLMGQIHQLRSELQDMEA
# notes: prey (Gal4 AD-HA fusion)
# Target: T6, v-akt murine thymoma viral oncogene homolog 1 (AKT1) 1-150 (human, UniProt P31749 1-150)
# T6 construct: range 1-150; bait (Gal4 DBD fusion)
# T6 sequence (P31749 1-150 limits assumed): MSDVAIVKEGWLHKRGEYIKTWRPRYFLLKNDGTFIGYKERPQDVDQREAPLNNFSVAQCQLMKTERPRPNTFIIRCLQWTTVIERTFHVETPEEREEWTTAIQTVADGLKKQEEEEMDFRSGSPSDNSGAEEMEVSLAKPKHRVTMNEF
# Test: yeast two-hybrid
row,Binder,binding result
1,"farnesyltransferase, CAAX box, alpha (FNTA) 189-328 (enzyme, prey (Gal4 AD-HA fusion)) not shown",binds

# Target: B1
# Test: yeast two-hybrid
row,Binder,binding result
1,"Tumor Suppressor (TSG101) 147-391 (other, human, UniProt Q99816 147-390, looked up, bait (Gal4 DBD fusion)) SASYPPYQATGPPNTSYMPGMPGGISPYPSGYPPNPSGYPGCPYPPGGPYPATTSSQYPSQPPVTTVGPSRDGTISEDTIRASLISAVSDKLRWRMKEEMDRAQAELNALKRTEEDLKKGHQKLEEMVTRLDQEVAEVDKNIELLKKKDEELSSALEKMENQSENNDIDEVIIPTAPLYKQILNLYAEENAIEDTIFYLGEALRRGVIDLDVFLKHVRLLSRKQFQLRALMQKARKTAGLSDLY",binds

# Target: T1, Tumor Suppressor (TSG101) 231-391
# Test: yeast two-hybrid
row,Binder,binding result
1,"LEEDMGQSEQKADPPATEKTLLEEKVKLEEQLKETVEKYKRALADTENLR (other, prey (Gal4 AD-HA fusion); also called PN19062/HMGE; GRPEL1) [GrpE-Like protein cochaperone (PN19062) 40-89]",binds
2,"Tropomyosin TM30pl (TPM4) 91-142 (other, human, UniProt P67936 91-142, looked up, prey (Gal4 AD-HA fusion)) MKVIENRAMKDEEKMEIQEMQLKEAKHIAEEADRKYEEVARKLVILEGELER",binds
3,"Chromosome-associated polypeptide HCAP (HCAP) 208-300 (other, human, UniProt Q9UQE7 208-300, looked up, prey (Gal4 AD-HA fusion)) EELAQYQKWDKMRRALEYTIYNQELNETRAKLDELSAKRETSGEKSRQLRDAQQDARDKMEDIERQVRELKTKISAMKEEKEQLSAERQEQIK",binds
4,"Zink finger protein 231 (ZNF231) 2308-2438 (other, human, UniProt Q9UPA5 2308-2438, looked up, prey (Gal4 AD-HA fusion)) EEPLPTTTPAAIKEAAGAPAPAPLAGQKPPADAAPGGGSGALSRPGFEKEEASQEERQRKQQEQLLQLERERVELEKLRQLRLQEELERERVELQRHREEEQLLVQRELQELQTIKHHVLQQQQEERQAQF",binds
5,"Tropomyosin TM30pl (TPM4) 79-142 (other, human, UniProt P67936 79-142, looked up, prey (Gal4 AD-HA fusion)) EAEKAADESERGMKVIENRAMKDEEKMEIQEMQLKEAKHIAEEADRKYEEVARKLVILEGELER",binds
6,"Rho-associated (ROCK1) 462-617 (enzyme, human, UniProt Q13464 462-617, looked up, prey (Gal4 AD-HA fusion); also called ROK; p160) KIMKELDEEGNQRRNLESTVSQIEKEKMLLQHRINEYQRKAEQENEKRRNVENEVSTLKDQLEDLKKVSQNSQLANEKLSQLQKQLEEANDLLRTESDTAVRLRKSHTEMSKSISQLESLNRELQERNRILENSKSQTDKDYYQLQAILEAERRDR",binds

# Target: T2, Tumor Suppressor (TSG101) 240-391
# Test: yeast two-hybrid
row,Binder,binding result
1,"GTPase-activiating protein 1 1463-1568 (other, human, UniProt P46940 1463-1568, looked up, prey (Gal4 AD-HA fusion); also called IQGAP1; IQGAP) LKKLTELGTVDPKNKYQELINDIARDIRNQRRYRQRRKAELVKLQQTYAALNSKATFYGEQVDYYKSYIKTCLDNLASKGKVSKKPREMKGKKSKKISLKYTAARL",binds
2,"Mitotic spindle coiled-coil related protein 942-1021 (other, human, UniProt Q96R06 942-1021, looked up, prey (Gal4 AD-HA fusion)) LGSDKSAFTRVASMVSLQPAETPGMEESLAEMSIMTTELQSLCSLLQESKEEAIRTLQRKICELQARLQAQEEQHQEVQK",binds

# Target: T3, Tumor Suppressor (TSG101) 12-326
# Test: yeast two-hybrid
row,Binder,binding result
1,B1,binds
2,"Kinesin Family Member 5A (KIF5A) 564-725 (other, human, UniProt Q12840 564-725, looked up, prey (Gal4 AD-HA fusion)) IVGNGEIKLPVEISGAIEEEFTVARLYISKIKSEVKSVVKRCRQLENLQVECHRKMEVTGRELSSCQLLISQHEAKIRSLTEYMQSVELKKRHLEESYDSLSDELAKLQAQETVHEVALKDKEPDTQDADEVKKALELQMESHREAHHRQLARLRDEINEKQ",binds
3,"Accessory proteins BAP31/BAP29 (BAP31) 184-246 (other, human, UniProt P51572 184-246, looked up, prey (Gal4 AD-HA fusion)) LKADLQKLKDELASTKQKLEKAENQVLAMRKQSEGLTKEYDRLLEEHAKLQAAVDGPMDKKEE",binds
4,"Golgi autoantigen (Golgin-84) 198-497 (other, human, UniProt Q8TBA6 198-497, looked up, prey (Gal4 AD-HA fusion)) SKENVSSNAACPDHTPTPNDDGKSHELSNLRLENQLLRNEVQSLNQEMASLLQRSKETQEELNKARARVEKWNADHSKSDRMTRGLRAQVDDLTEAVAAKDSQLAVLKVRLQEADQLLSTRTEALEALQSEKSRIMQDQSEGNSLQNQALQTFQERLHEADATLKREQESYKQMQSEFAARLNKVEMERQNLAEAITLAERKYSDEKKRVDELQQQVKLYKLNLESSKQELIDYKQKATRILQSKEKLINSLKEGSGFEGLDSSTASSMELEELRHEKEMQREEIQKLMGQIHQLRSELQ",binds
5,"novel protein PN9667 268-422 (other, prey (Gal4 AD-HA fusion)) KAKEKEVEKIEQNGLALIQNKKEDVSSIVMSTLRELGQTWANLDHMVGQLKILLKSVLDQWSSHKVAFDKINSYLMEARYSLSRFRLLTGSLEAVQVQVDNLQNLQDDLEKQERSLQKFGSITNQLLKECHPPVTETLTNTLKEVNMRWNNLLEE",binds

# Target: T4, Tumor Suppressor (TSG101) 140-270
# Test: yeast two-hybrid
row,Binder,binding result
1,"Hypothetical protein FLJ10540 1-120 (other, human, UniProt Q53EZ4 1-120, looked up, range 1-120; prey (Gal4 AD-HA fusion)) MSSRSTKDLIKSKWGSKPSNSKSETTLEKLKGEIAHLKTSVDEITSGKGKLTDKERHRLLEKIRVLEAEKEKNAYQLTEKDKEIQRLRDQLKARYSTTTLLEQLEETTREGERREQVLKA",binds
2,"Hypothetical protein FLJ10540 1-74 (other, human, UniProt Q53EZ4 1-74, looked up, range 1-74; prey (Gal4 AD-HA fusion)) MSSRSTKDLIKSKWGSKPSNSKSETTLEKLKGEIAHLKTSVDEITSGKGKLTDKERHRLLEKIRVLEAEKEKNA",binds
3,"Hypothetical protein FLJ10540 1-115 (other, human, UniProt Q53EZ4 1-115, looked up, prey (Gal4 AD-HA fusion)) MSSRSTKDLIKSKWGSKPSNSKSETTLEKLKGEIAHLKTSVDEITSGKGKLTDKERHRLLEKIRVLEAEKEKNAYQLTEKDKEIQRLRDQLKARYSTTTLLEQLEETTREGERRE",binds

# Target: T5, Tumor Suppressor (TSG101) 50-391
# Test: yeast two-hybrid
row,Binder,binding result
1,"Hypothetical protein FLJ10540 1-117 (other, human, UniProt Q53EZ4 1-117, looked up, prey (Gal4 AD-HA fusion)) MSSRSTKDLIKSKWGSKPSNSKSETTLEKLKGEIAHLKTSVDEITSGKGKLTDKERHRLLEKIRVLEAEKEKNAYQLTEKDKEIQRLRDQLKARYSTTTLLEQLEETTREGERREQV",binds
2,"Hypothetical protein FLJ10540 1-231 (other, human, UniProt Q53EZ4 1-231, looked up, prey (Gal4 AD-HA fusion)) MSSRSTKDLIKSKWGSKPSNSKSETTLEKLKGEIAHLKTSVDEITSGKGKLTDKERHRLLEKIRVLEAEKEKNAYQLTEKDKEIQRLRDQLKARYSTTTLLEQLEETTREGERREQVLKALSEEKDVLKQQLSAATSRIAELESKTNTLRLSQTVAPNCFNSSINNIHEMEIQLKDALEKNQQWLVYDQQREVYVKGLLAKIFELEKKTETAAHSLPQQTKKPESEGYLQE",binds
3,"Hypothetical protein FLJ10540 1-110 (other, human, UniProt Q53EZ4 1-110, looked up, range 1-110; prey (Gal4 AD-HA fusion)) MSSRSTKDLIKSKWGSKPSNSKSETTLEKLKGEIAHLKTSVDEITSGKGKLTDKERHRLLEKIRVLEAEKEKNAYQLTEKDKEIQRLRDQLKARYSTTTLLEQLEETTRE",binds
4,"Hypothetical protein FLJ10540 115-231 (other, human, UniProt Q53EZ4 115-231, looked up, prey (Gal4 AD-HA fusion)) EQVLKALSEEKDVLKQQLSAATSRIAELESKTNTLRLSQTVAPNCFNSSINNIHEMEIQLKDALEKNQQWLVYDQQREVYVKGLLAKIFELEKKTETAAHSLPQQTKKPESEGYLQE",binds
